This series deals with Hsf1-StrepTag II;Ssa1 (Hsp70) (Saccharomyces cerevisiae;Saccharomyces …, UniProt P10961;P10591 1-833;1-642, |). The series can be described thus: EMSA; 0.25 uM complex, 0.05 uM probe; 10 mM Tris-HCl pH 7.5, 50 mM KCl, 2.5 mM DTT, 0.25% Tween 20, 20 min at 20 C; 6% DNA retardation gel in TBE (modified: 1 mM MgCl2, no DTT listed, 0.7% agarose). To be noted: protein: recombinant;recombinant; tags: C-terminal StrepTag II;6xHis-SUMO removed by Ulp1; chain copies: 3;1; blunt. In general terms: In EMSA bound probe runs differently from free probe, usually more slowly.
Hsf1-StrepTag II;Ssa1 (Hsp70), sequence (P10961 whole entry, chain 1 of 2): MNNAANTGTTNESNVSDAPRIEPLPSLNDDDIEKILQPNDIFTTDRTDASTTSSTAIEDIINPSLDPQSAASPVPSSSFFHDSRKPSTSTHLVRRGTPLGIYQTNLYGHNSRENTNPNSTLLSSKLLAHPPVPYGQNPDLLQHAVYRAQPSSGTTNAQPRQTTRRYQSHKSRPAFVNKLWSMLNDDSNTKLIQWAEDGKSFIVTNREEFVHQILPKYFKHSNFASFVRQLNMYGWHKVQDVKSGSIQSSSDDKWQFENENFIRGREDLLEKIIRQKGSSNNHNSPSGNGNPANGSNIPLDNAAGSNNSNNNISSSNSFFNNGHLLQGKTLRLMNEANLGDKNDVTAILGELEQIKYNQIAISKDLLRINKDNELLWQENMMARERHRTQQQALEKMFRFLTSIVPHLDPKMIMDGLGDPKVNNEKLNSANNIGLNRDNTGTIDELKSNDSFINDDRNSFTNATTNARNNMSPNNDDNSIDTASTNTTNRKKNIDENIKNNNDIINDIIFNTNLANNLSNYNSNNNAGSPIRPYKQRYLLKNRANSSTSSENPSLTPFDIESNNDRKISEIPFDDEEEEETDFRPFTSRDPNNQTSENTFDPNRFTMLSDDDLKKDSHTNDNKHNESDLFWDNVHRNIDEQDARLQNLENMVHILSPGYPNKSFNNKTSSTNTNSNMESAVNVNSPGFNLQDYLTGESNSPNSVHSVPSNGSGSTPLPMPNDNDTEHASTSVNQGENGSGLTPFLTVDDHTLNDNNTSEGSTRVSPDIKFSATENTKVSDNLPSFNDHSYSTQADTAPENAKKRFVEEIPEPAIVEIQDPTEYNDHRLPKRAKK
Hsf1-StrepTag II;Ssa1 (Hsp70), sequence (P10591 whole entry, chain 2 of 2): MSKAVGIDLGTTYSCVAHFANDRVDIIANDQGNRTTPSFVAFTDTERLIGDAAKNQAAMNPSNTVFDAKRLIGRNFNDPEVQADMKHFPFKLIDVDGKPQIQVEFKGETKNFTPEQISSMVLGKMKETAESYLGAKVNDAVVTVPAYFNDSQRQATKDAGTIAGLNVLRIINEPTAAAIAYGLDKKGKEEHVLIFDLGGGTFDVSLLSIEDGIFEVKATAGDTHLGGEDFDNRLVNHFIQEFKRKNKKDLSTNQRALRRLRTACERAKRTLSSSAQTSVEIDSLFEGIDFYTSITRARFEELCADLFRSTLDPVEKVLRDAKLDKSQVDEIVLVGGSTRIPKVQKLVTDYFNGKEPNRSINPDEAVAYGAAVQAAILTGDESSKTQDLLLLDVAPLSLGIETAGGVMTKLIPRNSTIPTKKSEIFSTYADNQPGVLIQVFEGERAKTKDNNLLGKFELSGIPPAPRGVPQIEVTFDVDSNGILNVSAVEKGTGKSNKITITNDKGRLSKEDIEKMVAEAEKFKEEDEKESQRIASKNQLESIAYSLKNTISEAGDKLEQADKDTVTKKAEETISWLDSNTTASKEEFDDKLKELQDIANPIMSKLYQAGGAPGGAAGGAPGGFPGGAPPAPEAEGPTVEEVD

B1: HSE-DY682 (dsDNA)
DNA 1: TCGATTTTCCAGAACGTTCCATCGGC
DNA 2: GCCGATGGAACGTTCTGGAAAATCGA
Take B1: the binding result is given as “binds”.
